Assay [1] has as its target Collagen type IV from human placenta (human) (UniProt P08572). As to the kind of experiment: MST; RED-NHS-labeled collagen type IV constant at 25 nM, unlabeled partner varied (16 1:1 dilutions); 10 mM HEPES pH 7.2, 150 mM NaCl, 0.005% Tween-20, 15 µM BSA; 25 °C; 60% LED power, high MST power, MST-on time 1.5 s.
For assay [2], the target named is T1, human Otoraplin, residues 18-128 (human, UniProt Q9NRC9 18-128).
T1 construct: Otoraplin, human, UniProt Q9NRC9, residues 18-128; [U-15N]-enriched for the NMR titrations; also called Otoraplin (18-128); not shown: His-tag, N-terminal, cleaved
T1 sequence (looked up): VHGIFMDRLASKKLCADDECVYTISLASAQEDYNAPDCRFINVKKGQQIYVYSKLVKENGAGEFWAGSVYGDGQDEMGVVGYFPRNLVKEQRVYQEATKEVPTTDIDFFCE
As to the kind of experiment: NMR titration; 1H-15N HSQC series of [U-15N]-Otoraplin with SOS1 (1149-1158) at protein:peptide ratios 1:0.5 to 1:50; PBS pH 7.4, 298 K; two-dimensional lineshape analysis (TITAN), two-state binding model. As to conditions: both partners purified.

The target of assay [3] is human TANGO1 cargo-recognition (MOTH) domain, residues 21-131 (human, UniProt Q5JRA6-4 21-131, disulfides Cys38-Cys43 and Cys61-Cys124; cis-Pro83; His-tag removed with TEV (PDB 7R3M entity has one extra N-terminal Met); 15N or 15N/13C labelled for NMR). As to the kind of experiment: NMR titration; 1H-15N HSQC series of 208 µM [U-15N]-hsTANGO1(21-131) with peptide 132-151 at ratios 1:0.25 to 1:6; 25 mM HEPES pH 7.4, 150 mM NaCl, 298 K; two-dimensional lineshape analysis (TITAN), two-state binding model. To be noted: both partners purified.
Sequence of human TANGO1 cargo-recognition (MOTH) domain, residues 21-131 (Q5JRA6 other isoform, or with tags, fused parts or gaps): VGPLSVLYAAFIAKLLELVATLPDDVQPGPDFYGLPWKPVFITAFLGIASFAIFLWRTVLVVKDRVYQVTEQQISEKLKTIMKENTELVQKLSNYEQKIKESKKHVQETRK

The text below walks through data of PMC10119292, “Characterization of a fold in TANGO1 evolved from SH3 domains for the export of bulky cargos” (Nature Communications, 2023).

B1: Drosophila melanogaster TANGO1 cargo-recognition domain, residues 30-139 (domain or fragment)
chain: TLTWAATLSDKRLCADPKCEQIISMGIAKITYAIGGEGLISFKINSPIRVLSKSAGSNMQLWGVDINGRRGYANKDFIMEKKILVRDKDLLYEVPVVGPGSPVQSVETPV
Regarding B1, the Kd in assay [1] worked out at 6.9 µM.

B2: human TALI MOTH domain, residues 23-123 (domain or fragment)
chain: TKLLADLKKCGDLECEALINRVSAMRDYRGPDCRYLNFTKGEEISVYVKLAGEREDLWAGSKGKEFGYFPRDAVQIEEVFISEEIQMSTKESDFLCLLGVS
For the molecule B2, the Kd in assay [1] worked out at 11.4 µM.

B3: human Otoraplin, residues 18-128 (domain or fragment)
chain: T1 sequence (looked up)
In assay [1], B3 registered a Kd of 9.9 µM.

B4: SOS1 (1149-1158), class II PPII helix peptide (peptide, UniProt Q07889 1149-1158, looked up)
peptide: VPPPVPPRRR
notes: SOS1, residues 1149-1158; also called class II ligand; PPII class II ligand; source: synthetic peptide
Regarding B4, in assay [2], the Kd turned out to be 1300 µM and the koff was 350000 s⁻¹.

B5: synthetic peptide of human TANGO1 residues 132-151 (predicted C-terminal helix) (peptide, UniProt Q5JRA6 132-151, looked up)
peptide: FHNYNVEELLGFLELYNSAA
notes: TANGO1, human, UniProt Q5JRA6, residues 132-151; also called C-terminal helix peptide; peptide corresponding to residues 132–151; source: synthetic peptide
In the case of B5, in assay [3], the Kd turned out to be 321 µM and the koff was found to be 1100 s⁻¹.

B6: human TANGO1 MOTH domain with C-terminal helix, residues 21-151 (domain or fragment)
chain: PGQLDPSTGRRFSEHKLCADDECSMLMYRGEALEDFTGPDCRFVNFKKGDPVYVYYKLARGWPEVWAGSVGRTFGYFPKDLIQVVHEYTKEELQVPTDETDFVCFDGGRDDFHNYNVEELLGFLELYNSAA
B6: in assay [1], the Kd turned out to be 3.3 µM.
